This note sets out measurements from US20240132626A1 (Eli Lilly, published 2024).

Assay in all cases: SPR, captured via anti-human kappa, soluble ECD injected
Background: In SPR one partner is held on a chip, and binding of the other changes the refractive index at the surface.

Test [1] addresses T1, Soluble human EGFR ECD protein (human, UniProt P00533 25-645).
T1 construct: extracellular domain; His-tagged

Test [2] deals with T2, Soluble human HER-2 extracellular domain (ECD) protein (human, UniProt P04626 23-652).
T2 construct: extracellular domain; His-tagged

Test [3] addresses T3, Soluble human cMet extracellular domain (ECD) protein (human, UniProt P08581 25-932).
T3 construct: extracellular domain; His-tagged

As a reminder, the Kd is the free concentration of one partner at which half of the binding sites on the other are occupied at equilibrium, for simple one-to-one binding. Lower therefore signals tighter binding. The term koff denotes the first-order rate constant of dissociation. A low value points to slow dissociation. For orientation: kon means the second-order rate constant of association.

T3 sequence (P08581 25-932): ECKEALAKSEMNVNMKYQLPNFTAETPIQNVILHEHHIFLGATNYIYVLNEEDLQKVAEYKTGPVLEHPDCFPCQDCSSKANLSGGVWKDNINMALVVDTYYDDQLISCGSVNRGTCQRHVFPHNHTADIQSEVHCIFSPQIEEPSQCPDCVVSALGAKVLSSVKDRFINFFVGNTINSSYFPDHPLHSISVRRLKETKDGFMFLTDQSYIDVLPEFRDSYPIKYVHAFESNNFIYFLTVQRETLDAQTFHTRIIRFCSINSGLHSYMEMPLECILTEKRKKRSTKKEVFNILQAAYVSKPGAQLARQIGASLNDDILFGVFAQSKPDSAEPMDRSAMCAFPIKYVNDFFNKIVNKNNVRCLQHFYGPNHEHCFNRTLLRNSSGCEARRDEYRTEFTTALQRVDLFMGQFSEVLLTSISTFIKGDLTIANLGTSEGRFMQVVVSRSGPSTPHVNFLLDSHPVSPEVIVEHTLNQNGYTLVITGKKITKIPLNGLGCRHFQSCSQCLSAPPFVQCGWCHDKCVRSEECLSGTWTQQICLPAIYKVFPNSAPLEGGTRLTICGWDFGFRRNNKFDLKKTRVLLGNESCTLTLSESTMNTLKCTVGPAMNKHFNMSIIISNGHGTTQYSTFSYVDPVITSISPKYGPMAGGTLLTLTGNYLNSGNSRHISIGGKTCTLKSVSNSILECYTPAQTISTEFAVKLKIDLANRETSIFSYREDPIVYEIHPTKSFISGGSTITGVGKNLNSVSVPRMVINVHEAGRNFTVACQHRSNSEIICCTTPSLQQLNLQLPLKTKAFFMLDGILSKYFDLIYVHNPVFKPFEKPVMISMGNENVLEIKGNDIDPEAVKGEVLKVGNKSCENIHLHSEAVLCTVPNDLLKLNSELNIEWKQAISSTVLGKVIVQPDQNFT

B1: HER-2 X EGFR X cMet TsAb_C_L (other)
heavy 1: EVQLVESGGGLVQPGGSLRLSCAASGFTFTDYTMDWVRKAPGKGLEWVADVNPNSGGSIYNQEFKGRFTLSVDRSKNTLYLQMNSLRAEDTAVYYCARNLGPSFYFDYWGQGTLVTVSSASTKGPSVFPLAPSSKSTSGGTAALGCLVKDYFPEPVTVSWNSGALTSGVATGPAVLQSSGLYSLSSVVTVPSSSLGTQTYICNVNHKPSNTKVDKKVEPKSCDKTHTCPPCPAPEAAGGPSVFLFPPKPKDTLMISRTPEVTCVVVDVSHEDPEVKFNWYVDGVEVHNAKTKPREEQYQSTYRVVSVLTVLHQDWLNGKEYKCKVSNKALPAPIEKTISKAKGQPREPQVSTLPPSREEMTKNQVSLMCLVYGFYPSDIAVEWESNGQPENNYKTTPPVLDSDGSFFLYSVLTVDKSRWQQGNVFSCSVMHEALHNHYTQKSLSLSPG
light 1: RIQMTQSPSSLSASVGDRVTITCKASQDVSIGVAWYQDKPGKAPKLLIYSASYRYTGVPSRFSGSGSGTDFTLTISSLQPEDFATYYCQQYYIYPYTFGQGTKVEIKGQPKAAPSVTLFPPSSEELQANKATLVCYISDFYPGAVTVAWKADSSPVKAGVETTTPSKQSNNKYAAWSYLSLTPEQWKSHRSYSCQVTHEGSTVEKTVAPTEC
chain: EVQLVESGGGLVQPGGSLRLSCAASGYTFTSYWLHWVRQAPGKGLEWVGMIDPSNSDTRFNPNFKDRFTISADTSKNTAYLQMNSLRAEDTAVYYCATYRSYVTPLDYWGRGTLVTVSSASTKGPSVFPLAPSSKSTSGGTAALGCLVADYFPEPVTVSWNSGALTSGVHTFPAVLQSSGLYSLSSVVTVPSSSLGTQTYICNVNHKPSNTKVDERVEPKSC
heavy 2: QVQLVQSGAEVKKPGASVKVSCKASGYTFTSHWMHWVRYAPGQGLEWIGEFNPSNGRTNYNEKFKSKATMTVDTSTNTAYMELSSLRSEDTAVYYCASRDYDYDGRYFDYWGQGTLVTVSSASTKGPSVFPLAPCSKSTSGGTAALGCLVKDYFPEPVTVSWNSGALTSGVHTFPAVLQSSGLYSLSSVVTVPSSSLGTQTYICNVNHKPSNTKVDKKVEPDSGDKTHTCPPCPAPEAAGGPSVFLFPPKPKDTLMISRTPEVTCVVVDVSHEDPEVKFNWYVDGVEVHNAKTKPREEQYQSTYRVVSVLTVLHQDWLNGKEYKCKVSNKALPAPIEKTISKAKGQPREPQVYTLPPSRGDMTKNQVQLTCLVKGFYPSDIAVEWESNGQPENNYKTTPPVLDSDGSFFLASKLTVDKSRWQQGNVFSCSVMHEALHNHYTQKSLSLSPGKGGGGSGGGGSGGGGSGGGGSDIQMTQSPSSLSASVGDRVTITCKSSQSLLYTSSQKNYLAWYQQKPGDAPKLLIYWASTRESGVPSRFSGSGSGTDFTLTISSLQPEDFATYYCQQYYAYPWTFGQGTKVEIKRTVAAPSVFIFPPSDKQLKSGTARVVCLLNNFYPREAKVQWKVDNALQSGNSQESVTEQDSKDSTYSLISTLTLSKADYEKHKVYACEVTHQGLSSPVTKSFNRGEC
light 2: DIQMTQSPSSLSASVGDRVTITCSASSSVTYMYWYQRKPGKAPKLLIYDTSNLASGVPSRFSGSGSGTDYTFTISSLQPEDIATYYCQQWSSHIFTFGQGTKVEIKRTVAAPSVFIFPPSKEQLKSGTASVVCLLNNFYPREAKVQWKVDNALQSGNSQESVTEQDSKDSTYSLSSTLTLSKADYEKHKVYACEVTHQGLSSPVTKSFNRGEC
notes: Trispecific IgG-Fab antibody; the anti-cMet Fab is tethered through its light chain only at the C-terminus of HC2
For the molecule B1, the Kd in test [1] turned out to be 4.5 nM; in test [2] it was 0.8 nM; in test [3], 0.69 nM. For the same molecule, the koff in test [1] amounted to 0.0086 s⁻¹; in test [2], 0.00039 s⁻¹; in test [3] it was 0.00025 s⁻¹. In addition, the kon in test [1] came to 1.9e+06 M⁻¹ s⁻¹; in test [2], 520000 M⁻¹ s⁻¹; in test [3] it was 360000 M⁻¹ s⁻¹.
